Reference: patent publication US20210238290A1 (DRAGONFLY THERAPEUTICS, published 2021)

Biological target: T1, human P-cadherin (CDH3) expressed on cancer cell lines HCT116, H1975 and CAL27 (human, UniProt P22223 108-829)
T1 construct: whole, on cells
Experiment: flow cytometry on H1975, HCT116 and CAL27 cells, MFI fold over background
Excerpt: Human P-cadherin (CDH3)-expressing cancer cell lines, HCT116, H1975 and CAL27, were used to assess tumor antigen binding of multi-specific binding proteins having a P-cadherin (CDH3) binding site comprising a heavy chain variable domain sequence identical to SEQ ID NO:196 and a light chain variable domain sequence identical to SEQ ID NO:200 (D153 DB), or a P-cadherin (CDH3) binding site comprising a heavy chain variable domain sequence identical to SEQ ID NO:188 and a light chain variable domain sequence identical to SEQ ID NO:192 (TSP7 DB). Multi-specific binding proteins or corresponding monoclonal antibodies (mAb) having the same P-cadherin (CDH3) binding site were diluted and incubated with the cells. Binding was detected using a fluorophore conjugated anti-human IgG secondary antibody. Cells were analyzed by flow cytometry and binding was expressed as mean fluorescence intensity (MFI) normalized to human recombinant IgG1 stained controls to obtain fold over background (FOB) values.

T1 sequence (P22223 108-829): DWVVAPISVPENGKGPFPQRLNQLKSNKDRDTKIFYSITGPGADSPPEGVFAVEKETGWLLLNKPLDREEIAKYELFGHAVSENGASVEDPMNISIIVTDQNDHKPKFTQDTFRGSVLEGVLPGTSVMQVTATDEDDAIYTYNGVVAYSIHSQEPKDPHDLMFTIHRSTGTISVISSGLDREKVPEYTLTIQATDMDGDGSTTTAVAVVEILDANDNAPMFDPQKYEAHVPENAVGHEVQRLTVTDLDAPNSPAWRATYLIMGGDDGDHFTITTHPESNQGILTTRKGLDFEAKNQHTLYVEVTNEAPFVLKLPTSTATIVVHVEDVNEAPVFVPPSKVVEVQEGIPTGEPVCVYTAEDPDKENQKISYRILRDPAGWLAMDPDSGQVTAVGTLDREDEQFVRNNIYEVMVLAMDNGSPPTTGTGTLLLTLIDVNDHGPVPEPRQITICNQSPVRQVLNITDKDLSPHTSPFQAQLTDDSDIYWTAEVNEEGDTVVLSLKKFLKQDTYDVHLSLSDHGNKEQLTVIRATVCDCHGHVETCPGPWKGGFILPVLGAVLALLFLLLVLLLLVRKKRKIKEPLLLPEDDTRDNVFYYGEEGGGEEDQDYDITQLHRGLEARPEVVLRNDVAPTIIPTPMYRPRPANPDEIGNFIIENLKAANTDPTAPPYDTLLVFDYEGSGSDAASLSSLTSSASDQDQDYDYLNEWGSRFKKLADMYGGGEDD

| Binder | binding result |
| --- | --- |
| anti-P-cadherin mAb (D153 wt mAb) (antibody, V domains shown, it was detected with an anti-human IgG secondary antibody; also called D153 mAb) VH: EVQLVQSGAEVKKPGASVKVSCKASGYTFTSYGISWVRQAPGQGLEWMGWISAYNGNTNYAQKLQGRVTMTTDTSTSTAYMELRSLRSDDTAVYYCATIDTANAFGIWGQGTMVTVSS VL: QSVLTQPPSVSAAPGQKVTISCSGSSSNIGNNYVSWYQQLPGTAPKLLIYDNNKRPSGIPDRFSGSKSGTSATLGITGLQTGDEADYYCGTWDSSLSGVVFGGGTKLTVL | binds |
| anti-P-cadherin mAb (TSP7 wt mAb) (antibody, V domains shown, it was detected with an anti-human IgG secondary antibody; also called TSP7 mAb) VH: QVQLQESGPELVKPGASVKMSCKASGYSFTAYNMHWVKQSHGKSLEWIGFIDPYSGIITYNQTFKGKATLTVDKSSSTAYMQLNSLTSEDSAVYYCARRGYYDGGFDYWGQGTTLTVSS VL: DIQMTQTTSSLSASLGDRVTISCRASQDITNYLNWYQQKPDGTVKLLIYYTSRLHSGVPSRFSGSGSGTDYSLTISNLEQEDIATYFCQQDSKHPRTFGGGTKLEIK | binds |
